This is an account of results in patent publication US5512545.

The target of the assay is PDGF receptors (alpha and beta sub-units).

In turn, “PDGF-B (naturally occurring, full length; product of Comparative Example A) (ligand)” showed a Mitogenesis ng/ml ([3H]thymidine uptake by Swiss 3T3 cells; activity read from the dose response curve of the PDGF-BB standard c-sis) of 308 ng/mL.
